Consider two molecules from PMC6053526, “Arabidopsis WRKY50 and TGA Transcription Factors Synergistically Activate Expression of PR1” (Frontiers in Plant Science, 2018).

The test has as its target AtWRKY50 full length fused to a half of yellow fluorescent protein (BiFC) (Arabidopsis, UniProt Q8VWQ5 1-173). Description: cell-based or functional assay.

Where only a bound is given, the exact number is not on record here.

Chain of AtWRKY50 full length fused to a half of yellow fluorescent protein (BiFC) (Q8VWQ5 whole entry, the tested form may be a part): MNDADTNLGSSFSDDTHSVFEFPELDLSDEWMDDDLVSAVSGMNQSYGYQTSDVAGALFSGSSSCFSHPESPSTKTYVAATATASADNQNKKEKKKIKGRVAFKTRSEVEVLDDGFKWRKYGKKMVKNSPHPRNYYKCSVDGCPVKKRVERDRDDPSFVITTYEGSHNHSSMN

B1: TGA2 full length fused to a half of yellow fluorescent protein (BiFC) (natural protein, Arabidopsis, UniProt P43273 1-330, looked up)
chain: MADTSPRTDVSTDDDTDHPDLGSEGALVNTAASDSSDRSKGKMDQKTLRRLAQNREAARKSRLRKKAYVQQLENSRLKLTQLEQELQRARQQGVFISGTGDQAHSTGGNGALAFDAEHSRWLEEKNKQMNELRSALNAHAGDSELRIIVDGVMAHYEELFRIKSNAAKNDVFHLLSGMWKTPAERCFLWLGGFRSSELLKLLANQLEPMTERQLMGINNLQQTSQQAEDALSQGMESLQQSLADTLSSGTLGSSSSGNVASYMGQMAMAMGKLGTLEGFIRQADNLRLQTLQQMIRVLTTRQSARALLAIHDYFSRLRALSSLWLARPRE
Consider B1, for which the “PR1::GUS reporter expression in Arabidopsis protoplasts co-transfected with 35S::AtWRKY50 and 35S::TGA2 (AtWRKY50 alone approximately 7-fold, TGA alone 2-fold)” value is at most 14 fold.

B2: TGA5 full length fused to a half of yellow fluorescent protein (BiFC) (natural protein, Arabidopsis, UniProt Q39163 1-330, looked up)
chain: MGDTSPRTSVSTDGDTDHNNLMFDEGHLGIGASDSSDRSKSKMDQKTLRRLAQNREAARKSRLRKKAYVQQLENSRLKLTQLEQELQRARQQGVFISSSGDQAHSTAGDGAMAFDVEYRRWQEDKNRQMKELSSAIDSHATDSELRIIVDGVIAHYEELYRIKGNAAKSDVFHLLSGMWKTPAERCFLWLGGFRSSELLKLIASQLEPLTEQQSLDINNLQQSSQQAEDALSQGMDNLQQSLADTLSSGTLGSSSSGNVASYMGQMAMAMGKLGTLEGFIRQADNLRLQTYQQMVRLLTTRQSARALLAVHNYTLRLRALSSLWLARPRE
For the molecule B2, the “PR1::GUS reporter expression in Arabidopsis protoplasts co-transfected with 35S::AtWRKY50 and 35S::TGA5 (AtWRKY50 alone approximately 7-fold, TGA alone 2-fold)” value was at most 14 fold.
